In article PMC3200346, “A Highly Stable Plastidic-Type Ferredoxin-NADP(H) Reductase in the Pathogenic Bacterium Leptospira interrogans” (PLoS ONE, 2011):

Experiments:
LepFNR [1] = target: T1, LepFNR (Leptospira interrogans, UniProt Q8EY89); test: UV-visible spectrum; FAD fluorescence (release with urea); assay type: binding; conditions: noncovalently bound prosthetic group, 50 mM Tris-HCl pH 8.0, 25 °C
T1 construct: gene LA_4327; recombinant in E. coli BL21(DE3)pLysS, thioredoxin fusion (pET32JO-LepFNR) cut off by thrombin; monomeric FAD flavoprotein
T1 sequence (Q8EY89 entry or part of it): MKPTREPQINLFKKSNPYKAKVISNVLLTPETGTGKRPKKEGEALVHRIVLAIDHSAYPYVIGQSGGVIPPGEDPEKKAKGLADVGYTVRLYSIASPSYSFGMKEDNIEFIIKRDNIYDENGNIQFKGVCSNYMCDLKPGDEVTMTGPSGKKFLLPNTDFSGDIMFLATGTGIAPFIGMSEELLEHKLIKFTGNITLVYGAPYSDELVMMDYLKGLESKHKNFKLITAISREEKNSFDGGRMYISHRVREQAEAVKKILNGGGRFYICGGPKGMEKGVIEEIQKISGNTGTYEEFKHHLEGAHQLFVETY

E. coli FNR [2] = target: T2, E. coli FNR (Escherichia coli, UniProt P28861); test: UV-visible spectrum; assay type: binding; conditions: noncovalently bound prosthetic group
T2 construct: gene fpr; ferredoxin-NADP(H) reductase, not the FNR transcription regulator
T2 sequence (P28861 2-248): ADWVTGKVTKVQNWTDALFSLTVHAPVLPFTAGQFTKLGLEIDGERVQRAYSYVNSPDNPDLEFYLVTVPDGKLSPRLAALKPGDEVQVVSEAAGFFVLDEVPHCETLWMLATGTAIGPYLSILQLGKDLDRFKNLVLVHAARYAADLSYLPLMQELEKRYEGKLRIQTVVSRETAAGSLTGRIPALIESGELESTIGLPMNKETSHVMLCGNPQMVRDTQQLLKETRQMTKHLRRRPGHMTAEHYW

Pea leaf FNR = target: T3, Pea leaf FNR (Lathyrus oleraceus, UniProt P10933); test: difference absorption spectroscopy; assay type: binding; conditions: read-out: K d ^NADP+ /
T3 construct: gene PETH; preparation of the assayed enzyme not described; monomeric FAD flavoprotein
T3 sequence (P10933 53-360): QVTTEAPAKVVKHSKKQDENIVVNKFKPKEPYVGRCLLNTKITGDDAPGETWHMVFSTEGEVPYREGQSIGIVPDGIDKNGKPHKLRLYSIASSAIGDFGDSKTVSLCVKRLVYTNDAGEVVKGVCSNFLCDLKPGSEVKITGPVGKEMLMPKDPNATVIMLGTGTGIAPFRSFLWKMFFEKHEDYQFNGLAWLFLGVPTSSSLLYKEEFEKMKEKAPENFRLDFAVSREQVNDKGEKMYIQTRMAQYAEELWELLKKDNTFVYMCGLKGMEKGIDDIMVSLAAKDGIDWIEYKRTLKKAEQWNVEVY
From the text: difference absorption spectroscopy on Pea leaf FNR

E. coli FNR [3] = target: T2, E. coli FNR; test: difference absorption spectroscopy; assay type: binding; conditions: read-out: K d ^NADP+ /
From the text: difference absorption spectroscopy on E. coli FNR

LepFNR [4] = target: T1, LepFNR; test: difference absorption spectroscopy titration; assay type: binding
From the text: difference absorption spectroscopy titration on LepFNR

[5] = test system: NC(=O)C1=CN([C@@H]2O[C@H](COP(=O)(O)OP(=O)(O)OC[C@H]3O[C@@H](n4cnc5c(N)ncnc54)[C@H](OP(=O)(O)O)[C@@H]3O)[C@@H](O)[C@H]2O)C=CC1; test: purified protein; conditions: 1 mM potassium ferricyanide, NADPH regenerating system, 50 mM Tris-HCl pH 8.0, 30 °C
[6] = target: Leptospira interrogans ferredoxin-NADP(H) reductase (L. interrogans)
[7] = target: Leptospira interrogans ferredoxin-NADP(H) reductase (L. interrogans); remark: listed apart in the source
purified protein [8] = substrate: NC(=O)C1=CN([C@@H]2O[C@H](COP(=O)(O)OP(=O)(O)OC[C@H]3O[C@@H](n4cnc5c(N)ncnc54)[C@H](OP(=O)(O)O)[C@@H]3O)[C@@H](O)[C@H]2O)C=CC1; test: purified protein; assay type: biochemical, Lathyrus oleraceus; conditions: 1 mM potassium ferricyanide, NADPH regenerating system, 50 mM Tris-HCl pH 8.0, 30 °C
purified protein [9] = substrate: NC(=O)C1=CN([C@@H]2O[C@H](COP(=O)(O)OP(=O)(O)OC[C@H]3O[C@@H](n4cnc5c(N)ncnc54)[C@H](OP(=O)(O)O)[C@@H]3O)[C@@H](O)[C@H]2O)C=CC1; test: purified protein; assay type: biochemical, Escherichia coli; conditions: 1 mM potassium ferricyanide, NADPH regenerating system, 50 mM Tris-HCl pH 8.0, 30 °C

What does the source list for `Cc1cc2nc3c(=O)[nH]c(=O)nc-3n(C[C@H](O)[C@H](O)[C@H](O)COP(=O)(O)OP(=O)(O)OC[C@H]3O[C@@H](n4cnc5c(N)ncnc54)[C@H](O)[C@@H]3O)c2cc1C` [FAD]?
UV-visible spectrum; FAD fluorescence (release with urea) (LepFNR [1]): the prosthetic group remains bound to the enzyme; UV-visible spectrum (E. coli FNR [2]): spectra of the pea leaf FNR, E. coli FNR and LepFNR, all essentially in oxidized states

For `NC(=O)c1ccc[n+]([C@@H]2O[C@H](COP(=O)(O)OP(=O)(O)OC[C@H]3O[C@@H](n4cnc5c(N)ncnc54)[C@H](OP(=O)(O)O)[C@@H]3O)[C@@H](O)[C@H]2O)c1` [NADP^+], which Kd (Pea leaf FNR) is on record?
Its Kd is 11.3 ± 2.1 µM.

And the Kd (E. coli FNR [3])?
Its Kd is 7.6 ± 2.2 µM.

What about the Kd (LepFNR [4]) of the same molecule?
The Kd was 13.2 ± 3.1 µM.

Which results are given for “LepFNR (Leptospira interrogans serovar Lai str. 56601)”?
Km [5]: 14.5 ± 1.7 µM; kcat [5]: 258 ± 13.7 s⁻¹; kcat/Km [5]: 1.78e+07 M⁻¹ s⁻¹

How did the NADPH-cytochrome c reductase activity of LepFNR with LB107 ferredoxin under anaerobic conditions at different pH values; maximal specific activity at pH 6.5, lower at higher pH [6] turn out when “Leptospira interrogans LB107 [4Fe-4S] ferredoxin (natural protein)” was run?
The NADPH-cytochrome c reductase activity of LepFNR with LB107 ferredoxin under anaerobic conditions at different pH values; maximal specific activity at pH 6.5, lower at higher pH was 6.13 µmol/min/mg.

“Pisum sativum leaf ferredoxin (from UniProt P09911 53-149) (natural protein)” was tested. Which NADPH-cytochrome c reductase activity of LepFNR with P. sativum leaf ferredoxin; the reaction was linear with pea leaf ferredoxin up to 70 µM, no kinetic parameters determined [7] did it give?
The NADPH-cytochrome c reductase activity of LepFNR with P. sativum leaf ferredoxin; the reaction was linear with pea leaf ferredoxin up to 70 µM, no kinetic parameters determined was 2.5 s⁻¹.

B1: Pea leaf FNR (Lathyrus oleraceus) (protein)
chain: T3 sequence (P10933 53-360)
notes: preparation of the assayed enzyme not described; monomeric FAD flavoprotein
What does the source list for B1?
Km (purified protein [8]): 15.0 ± 1.6 µM; kcat (purified protein [8]): 325 ± 16.5 s⁻¹; kcat/Km (purified protein [8]): 2.17e+07 M⁻¹ s⁻¹

B2: E. coli FNR (Escherichia coli K-12) (protein)
chain: T2 sequence (P28861 2-248)
notes: ferredoxin-NADP(H) reductase, not the FNR transcription regulator
How did the Km (purified protein [9]) turn out when B2 was run?
The Km was 8.3 ± 0.5 µM.

What about the kcat (purified protein [9]) of the same molecule?
Its kcat is 38.2 ± 2.3 s⁻¹.

And the kcat/Km (purified protein [9])?
The kcat/Km was 5e+06 M⁻¹ s⁻¹.
